One assay concerns the target T1, bovine fibrinogen (bovine, UniProt P02672 20-615; P02676 1-468; P12799 25-444).
T1 construct: The three chains are general knowledge about fibrinogen; also called bovine Fg
T1 sequence 1: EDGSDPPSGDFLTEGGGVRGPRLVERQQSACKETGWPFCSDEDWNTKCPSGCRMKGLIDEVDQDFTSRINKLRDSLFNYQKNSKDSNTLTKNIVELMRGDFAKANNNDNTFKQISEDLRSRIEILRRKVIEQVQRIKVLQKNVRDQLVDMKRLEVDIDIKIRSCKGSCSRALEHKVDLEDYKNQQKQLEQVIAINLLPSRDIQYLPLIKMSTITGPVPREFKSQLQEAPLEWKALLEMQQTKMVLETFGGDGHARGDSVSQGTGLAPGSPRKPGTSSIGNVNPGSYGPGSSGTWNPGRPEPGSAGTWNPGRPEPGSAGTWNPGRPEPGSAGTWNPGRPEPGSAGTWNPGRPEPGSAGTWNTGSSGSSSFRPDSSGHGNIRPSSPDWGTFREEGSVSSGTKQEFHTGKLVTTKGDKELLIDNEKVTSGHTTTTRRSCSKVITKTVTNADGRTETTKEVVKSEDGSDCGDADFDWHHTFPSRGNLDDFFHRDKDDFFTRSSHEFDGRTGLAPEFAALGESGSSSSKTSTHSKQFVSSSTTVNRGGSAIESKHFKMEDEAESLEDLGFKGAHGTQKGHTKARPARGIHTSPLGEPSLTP
T1 sequence 2: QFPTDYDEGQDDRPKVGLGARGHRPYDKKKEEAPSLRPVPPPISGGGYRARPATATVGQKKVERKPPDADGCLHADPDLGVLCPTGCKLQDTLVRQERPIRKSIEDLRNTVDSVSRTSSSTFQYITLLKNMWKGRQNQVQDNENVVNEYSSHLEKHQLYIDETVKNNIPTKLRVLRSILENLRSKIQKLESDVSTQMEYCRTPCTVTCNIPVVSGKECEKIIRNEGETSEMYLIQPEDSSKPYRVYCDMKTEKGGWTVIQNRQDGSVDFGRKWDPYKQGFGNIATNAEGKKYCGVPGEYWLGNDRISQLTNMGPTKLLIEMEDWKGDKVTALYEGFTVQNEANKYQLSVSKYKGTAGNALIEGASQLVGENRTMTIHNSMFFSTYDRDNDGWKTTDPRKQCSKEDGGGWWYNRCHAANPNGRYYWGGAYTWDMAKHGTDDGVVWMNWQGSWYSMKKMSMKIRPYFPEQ
T1 sequence 3: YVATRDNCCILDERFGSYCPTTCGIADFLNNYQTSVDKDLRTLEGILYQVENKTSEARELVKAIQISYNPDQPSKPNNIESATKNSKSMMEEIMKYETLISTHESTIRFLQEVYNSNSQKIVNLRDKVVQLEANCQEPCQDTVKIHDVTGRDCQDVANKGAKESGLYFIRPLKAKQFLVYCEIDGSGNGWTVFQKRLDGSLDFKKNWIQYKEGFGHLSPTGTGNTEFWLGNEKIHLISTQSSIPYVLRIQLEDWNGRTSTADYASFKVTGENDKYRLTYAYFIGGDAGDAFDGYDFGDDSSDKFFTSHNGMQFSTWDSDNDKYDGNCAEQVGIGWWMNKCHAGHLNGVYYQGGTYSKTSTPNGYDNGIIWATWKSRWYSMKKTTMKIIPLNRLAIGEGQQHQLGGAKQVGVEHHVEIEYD
Kind of assay: solid phase adherence assay, 1 µg Fg per well, absorbance 590 nm.

For a further assay, the target named is T2, human fibrinogen (human, UniProt P02671 20-629; P02675 31-491; P02679 27-437).
T2 construct: The three chains are general knowledge about fibrinogen; also called human Fg
T2 sequence 1: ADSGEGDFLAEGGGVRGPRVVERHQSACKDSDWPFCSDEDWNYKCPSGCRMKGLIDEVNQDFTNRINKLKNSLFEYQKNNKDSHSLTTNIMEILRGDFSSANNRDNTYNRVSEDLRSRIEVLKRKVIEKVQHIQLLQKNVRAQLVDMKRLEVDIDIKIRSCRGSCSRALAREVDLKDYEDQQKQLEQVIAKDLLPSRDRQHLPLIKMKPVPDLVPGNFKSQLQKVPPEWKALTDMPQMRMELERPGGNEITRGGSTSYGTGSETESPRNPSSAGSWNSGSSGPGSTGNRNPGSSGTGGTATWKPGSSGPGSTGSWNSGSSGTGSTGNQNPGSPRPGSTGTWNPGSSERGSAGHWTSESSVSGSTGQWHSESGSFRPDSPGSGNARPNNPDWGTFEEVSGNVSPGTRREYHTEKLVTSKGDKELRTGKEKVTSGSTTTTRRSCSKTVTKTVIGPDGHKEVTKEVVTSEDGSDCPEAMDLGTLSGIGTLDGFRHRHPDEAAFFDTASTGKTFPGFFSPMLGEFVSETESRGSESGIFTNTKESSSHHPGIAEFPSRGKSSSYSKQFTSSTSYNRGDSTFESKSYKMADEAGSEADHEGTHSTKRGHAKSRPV
T2 sequence 2: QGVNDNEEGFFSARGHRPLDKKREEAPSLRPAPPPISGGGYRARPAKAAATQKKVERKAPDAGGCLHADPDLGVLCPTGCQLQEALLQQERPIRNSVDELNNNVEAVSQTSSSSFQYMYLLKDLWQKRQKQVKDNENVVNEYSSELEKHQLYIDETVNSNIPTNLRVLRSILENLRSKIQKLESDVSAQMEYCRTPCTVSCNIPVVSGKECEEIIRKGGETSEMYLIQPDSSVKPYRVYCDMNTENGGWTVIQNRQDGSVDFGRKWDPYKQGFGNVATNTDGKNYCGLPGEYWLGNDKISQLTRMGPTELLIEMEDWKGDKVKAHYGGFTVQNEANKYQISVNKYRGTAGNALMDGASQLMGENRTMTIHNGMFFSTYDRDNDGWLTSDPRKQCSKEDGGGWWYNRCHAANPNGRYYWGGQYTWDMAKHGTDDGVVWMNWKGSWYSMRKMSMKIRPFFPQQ
T2 sequence 3: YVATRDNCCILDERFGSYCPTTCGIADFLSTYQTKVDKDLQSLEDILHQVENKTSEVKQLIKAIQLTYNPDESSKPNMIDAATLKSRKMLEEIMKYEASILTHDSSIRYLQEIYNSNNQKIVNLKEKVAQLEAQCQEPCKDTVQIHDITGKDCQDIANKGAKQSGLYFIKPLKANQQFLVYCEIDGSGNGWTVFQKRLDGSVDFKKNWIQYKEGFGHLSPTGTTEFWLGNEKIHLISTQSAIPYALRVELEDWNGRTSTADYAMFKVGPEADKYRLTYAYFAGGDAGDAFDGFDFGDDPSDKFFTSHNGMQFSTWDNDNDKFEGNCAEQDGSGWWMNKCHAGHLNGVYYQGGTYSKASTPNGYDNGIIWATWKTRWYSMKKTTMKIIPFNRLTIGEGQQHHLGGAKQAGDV
Described as above.

Consider 1 molecule from patent publication US20180237480A1 (UNIVERSITY OF EDINBURGH, published 2018).

B1: SpsD of S. pseudintermedius ED99, full-length, expressed on L. lactis MG1363 (pOri23) (other)
chain: SEVSATTQEHNVETEQTKTEGELTTEVAQQAVSESAPIAENMQKTTSVASENAKEVTASDSTQEVTKTEAKDTATMKDSEIAQPVSEVNKPVTQTAAPVAEPSTANKQTSPRQVQELTAPMDTKVINVENGTDVTSKVKVEKSSITGHQNKDKTYHQSNTVNPHKAERVTLNYDWSFENGIKAGDYFDFQLSDNVDTNGISTIKKVPHIMDSQNSEQIIAYGEINENNRVRYRFMDYVNQKENLKGKLSLNLFIKPDKVQDEGKITVTSQLGKEMTSQEFDIKYIDGVKSPSGITLNGRLDELSKADQSFTHYSIFKPKHNNLTNVTLRGTVSNNAQQNEKNGQVNVYEYIGQGELPQSAYANVNDTKQFNDITKSMKSIKNNSNGYEITFDMNKDNHPYIIVYQGHFNNNAKDFDFSTNATGYQNLNQSEYSYYWPYNYSFNLTWDNGVAFYSNNASGEGNDKPVPPTYGYSPTVNTIQDTHADYPVMTFQQPGTLEETEDSMPITTLTESGEDRGENTSPIIETTEDSQPVEFEEETNHGIQDVTLHADAVDFEEETNHGEQDTVHHSDVVEYDEDTTTGMLTGAISDHTTEEGTMEYTTDGLLIEFDDEMNPNVSGQYDDITTDTIEESSHIDTFTELESEFGQHDGIVTFEEDTIVEKPKTEKGNRVPLVIDLSTPKHNHQFNIQPTDPNIDTSATYRIGNFVWRDEDHNGVQNDGEHGLEGVLVTLKTADGVVLNTTTSDANGHYQFTNVQKGKYIVEFTTPEGYEATSKHTTANTEKDSDGLIANIDVTQDDMSIDAGFFPLENWNPQPEPKNPDDREKPAPEQPDVPQPEPKNPDDREKPAPEQPDVPQPEPKNPDDREKPAPEQPDVPQPEPKNPDDKEKPAPEQPDVPQPEPKNPDDKEKPAPEQPDAPQPKPMLPGEKVKPKPTHPGEAMQTTPQDKSTSQTDEALPKTGESSSQSSALIFGGLLSLLGLGLLRRSSKQNRSSMK
notes: also called L. lactis expressing SpsD; putative MSCRAMM SpsD
On to B1, for which the binding result with bovine fibrinogen and with human fibrinogen was “binds” in each case.
